Data reported in article PMC4159622.

Columns and labels:
[1] = target: FBXO11 (UniProt Q86XK2); assay: co-IP of alanine scanning mutants; conditions: reference: wild type; sites S11
[2] = target: FBXO11 (UniProt Q86XK2); assay: co-IP with anti-HA; conditions: reference: wild type; sites S11

Row | Substance | binding against the reference [1] | binding against the reference [2]
1 | SNAIL (from UniProt O95863) S11A | lost | –
2 | SNAIL (from UniProt O95863) S11V | – | lost
